The target of one assay is T1, Mutant D4-1B.
T1 construct: D4 domain point mutant; also called ILT2 mutant 4-1b
The assay can be described thus: flow cytometry titration on cells transfected with ILT2 mutant 4-1b.

The next assay addresses T2, Mutant D4-4.
T2 construct: D4 domain point mutant; also called ILT2 mutant 4-4
The assay is described as follows: flow cytometry titration on cells transfected with ILT2 mutant 4-4. (Flow cytometry measures light scatter and fluorescence of single cells or particles in a stream.)

The target of assay [1] is T3, recombinant human ILT2 protein (analyte in SPR and Octet) (human, UniProt Q8NHL6 24-458, limits assumed).
T3 construct: also called Human ILT2 recombinant proteins
The assay can be described thus: SPR, mAb captured on Protein-A, monovalent, two state reaction. As for the experimental part:
Measurements were performed on a Biacore T200 apparatus (Biacore GE Healthcare) at 25° C. In all Biacore experiments HBS-EP+ (Biacore GE Healthcare) and NaOH 10 mM served as running buffer and regeneration buffer respectively. Sensorgrams were analyzed with Biacore T100 Evaluation software. Protein-A was purchased from (GE Healthcare). Human ILT2 recombinant proteins were cloned, produced and purified at Innate Pharma. Protein-A proteins were immobilized covalently to carboxyl groups in the dextran layer on a Sensor Chip CMS. The chip surface was activated with EDC/NHS (N-ethyl-N′-(3-dimethylaminopropyl) carbodiimidehydrochloride and N-hydroxysuccinimide (Biacore GE Healthcare)). Protein-A was diluted to 10 μg/ml in coupling buffer (10 mM acetate, pH 5.6) and injected until the appropriate immobilization level was reached (i.e. 600 RU). Deactivation of the remaining activated groups was performed using 100 mM ethanolamine pH 8 (Biacore GE Healthcare). […] For blank subtraction, cycles were performed again replacing ILT2 proteins with running buffer. The monovalent affinity analysis was conducted following a regular Capture-Kinetic protocol as recommended by the manufacturer (Biacore GE Healthcare kinetic wizard). […]

Assay [2] concerns the target T4, human ILT-2 (LILRB1), complete form expressed at the cell surface (human, UniProt Q8NHL6 24-650).
T4 construct: also called CHO-ILT2; CHO ILT2 cell line
The assay is described as follows: flow cytometry, CHO-ILT2 cells.

Assay [3] addresses T3, recombinant human ILT2 protein (analyte …). The assay can be described thus: BLI (Octet RED96), mAb captured on AMC biosensor, 1:1 model. In general terms: BLI is a label-free optical method that tracks binding on a fibre tip over time.
A further assay has as its target T5, ILT2 mutant 4-2 (human, UniProt Q8NHL6 24-650).
T5 construct: Transfected in HEK293T cells
The assay can be described thus: flow cytometry titration on cells transfected with ILT2 mutant 4-2.

T3 sequence (Q8NHL6 24-458 limits assumed): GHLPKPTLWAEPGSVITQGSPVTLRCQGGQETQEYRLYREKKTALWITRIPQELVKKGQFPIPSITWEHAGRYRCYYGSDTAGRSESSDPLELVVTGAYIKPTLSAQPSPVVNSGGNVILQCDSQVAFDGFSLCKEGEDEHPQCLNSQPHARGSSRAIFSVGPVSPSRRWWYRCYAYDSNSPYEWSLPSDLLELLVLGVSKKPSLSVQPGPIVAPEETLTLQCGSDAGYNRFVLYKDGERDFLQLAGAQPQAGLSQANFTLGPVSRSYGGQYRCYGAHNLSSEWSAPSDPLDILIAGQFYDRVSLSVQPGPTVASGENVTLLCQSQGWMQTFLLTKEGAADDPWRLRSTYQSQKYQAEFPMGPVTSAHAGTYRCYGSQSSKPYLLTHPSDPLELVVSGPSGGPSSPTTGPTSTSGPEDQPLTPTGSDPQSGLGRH
T5 sequence (Q8NHL6 other isoform, or with tags, fused parts or gaps mutant): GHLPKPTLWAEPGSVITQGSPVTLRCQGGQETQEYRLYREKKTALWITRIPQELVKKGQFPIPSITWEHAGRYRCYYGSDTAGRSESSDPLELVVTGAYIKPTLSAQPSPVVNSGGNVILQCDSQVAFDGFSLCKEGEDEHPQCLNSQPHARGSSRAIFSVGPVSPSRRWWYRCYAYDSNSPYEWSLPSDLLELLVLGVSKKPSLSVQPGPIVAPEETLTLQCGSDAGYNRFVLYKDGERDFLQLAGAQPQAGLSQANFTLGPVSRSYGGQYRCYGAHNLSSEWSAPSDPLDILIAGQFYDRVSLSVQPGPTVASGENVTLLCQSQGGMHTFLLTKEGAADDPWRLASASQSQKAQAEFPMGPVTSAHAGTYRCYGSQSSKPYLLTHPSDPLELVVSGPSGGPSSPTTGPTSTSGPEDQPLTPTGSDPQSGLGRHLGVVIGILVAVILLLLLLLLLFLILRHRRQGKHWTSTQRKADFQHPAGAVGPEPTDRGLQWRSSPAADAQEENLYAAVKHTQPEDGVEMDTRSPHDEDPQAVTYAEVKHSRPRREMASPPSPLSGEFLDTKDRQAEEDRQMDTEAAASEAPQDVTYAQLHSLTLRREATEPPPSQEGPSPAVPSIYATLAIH
T4 sequence (Q8NHL6 24-650): as the sequence (Q8NHL6 other isoform, or with tags, fused parts or gaps mutant) above, with G328W, H330Q, A347R, A349T, S350Y, A355Y counted along it

B1: 26D8 (antibody, human IgG1, V domains shown)
VH: QVQLQQSGAELVKPGASVKLSCKASGYTFTEHTIHWIKQRSGQGLEWIGWFYPGSGSMKYNEKFKDKATLTADKSSSTVYMELTRLTSEDSAVYFCARHTNWDFDYWGQGTTLTVSS
VL: DIVLTQSPASLAVSLGQRATISCKASQSVDYGGDSYMNWYQQKPGQPPKLLIYAASNLESGIPARFSGSGSGTDLTLNIHPVEEDDAAMYYCQQSNEEPWTFGGGTKLEIK
Turning to B1, in the assay with Mutant D4-1B, the EC50 (read off the curve) (in general, the concentration at which the effect is half-maximal) was about 0.2 µg/mL.

B2: 18E1 (antibody, human IgG1, V domains shown)
VH: QVQLQQSGAELVKPGASVRLSCKASGYTFTAHTIHWVKQRSGQGLEWIGWLYPGSGSIKYNEKFKDKATLTADKSSSTVYMELSRLTSEDSAVYFCARHTNWDFDYWGQGTTLTVSS
VL: NIVLTQSPASLAVSLGQRATISCKASQSVDYGGASYMNWYQQKPGQPPKLLIYAASNLESGIPARFSGSGSGTDLTLNIHPVEEEDAAMYYCQQSNEEPWTFGGGTKLEIK
As for B2, the “EC50 (read off the curve)” value with Mutant D4-4 and with Mutant D4-1B was about 0.3 µg/mL in each case.

B3: 27H5 (antibody, human IgG1, V domains shown)
VH: QVQLKESGPGLVAPSQSLSITCTVSGFSLTSYGVSWVRQPPGKGLEWLGVIWGDGNTNYHSALISRLSISKDNSKSQVFLKLNSLQTDDTATYYCARTNWDGWFAYWGQGTLVTVSA
VL: DIVMTQSHKFMSTSVGDRVSITCKASQDVGTAVAWYQQKPGQSPKLLIYWASTRHTGVPDRFTGSGSGTDFTLTISNVQSEDLADYFCQQYRSYPLGTFGGGTKLEIK
Consider B3, for which the koff (commonly the rate constant with which the complex falls apart) in assay [1] amounted to 0.1 s⁻¹.

B4: GHI/75 (antibody, V domains shown)
VH: EVILVESGGALVRPGGSLKLSCAASGFTFSSNAMSWVRQTPEKRLEWVATISNGGTFTYYPDSVKGRFTISRDNAKNTLYLQMNSLRSEDTAMYYCARHGDGNYGDPLDYWGQGTTLTVSS
VL: DIQMTQSPASQSASLGESVTITCLASQTIGTWLAWYQQKPGKSPQLLIYAATNLADGVPSRFSGSGSGTKFSFKISSLQAEDFVSYYCQQLYSTPFTFGSGTKLEIK
For B4, the response in assay [2] was half-maximal at 5.39 µg/mL (EC50). Besides, in assay [3], the Kd (as a rule, the free concentration of one partner at which half of the binding sites on the other are occupied at equilibrium, for simple one-to-one binding) was found to be 28.1 nM; the koff came out at 0.00038 s⁻¹; the kon (as a rule, the rate constant with which the complex forms) was determined as 13000 M⁻¹ s⁻¹.

B5: 3H5 (antibody, human IgG1, V domains shown)
VH: QVQLKESGPGLVAPSQSLSITCTVSGFSLTSYGVSWVRQPPGKGLEWLGVIWGDGSTNYHSALISRLSISKDNSKSQVFLKLNSLQTDDTATYYCAKPRWDDYAMDYWGQGTSVTVSS
VL: DIQMTQTTSSLSASLGDRVTISCRASQDISNYLNWYQQKPDGTVKLLIYYTSRLHSGVPSRFSGSGSGTDYSLTISNLEQEDIATYFCQQGNTLWTFGGGTKLEIK
For B5, the koff in assay [1] was determined as 0.008 s⁻¹.

B6: 27C10 (antibody, human IgG1, V domains shown)
VH: EVQLQESGPGLVKPSQSLSLTCSVTGYSITSGYYWNWIRQFPENKLEWMGYIRYDGSNNYNPSLNNRISITRDASKNQFFLKLNSVTTEDTATYYCARGWLLWFYAVDYWGQGTSVTVSS
VL: DVVMTQTPLSLPVSLGDQASISCRSSQSIVHTNGNTYLEWYLQKSGQSPKLLIYKVSNRLSGVPDRFSGSGSGTDFTLKISRVEAEDLGIYYCFQGSHVPWTFGGGTKLEIK
As for B6, the “EC50 (read off the curve)” value is about 0.6 µg/mL with ILT2 mutant 4-2, about 0.5 µg/mL in the assay with Mutant D4-4 and about 0.5 µg/mL in the assay with Mutant D4-1B.
